JP2011147454A (dated 2011)
Substitutions are numbered along the chain they refer to. Like-named read-outs stand apart in the source and are kept apart here.

Tests used:
[1] = target: 未変性の(天然に存在する)ヒトIL-13 (HDLM-2細胞から放出) (human) (UniProt P35225); assay: cell-based or functional assay
[2] = target: 組換え細菌由来のヒトIL-13 (Peprotech) (human) (UniProt P35225); assay: cell-based or functional assay
[3] = target: T1, 非ヒト霊長類IL-13 (アカゲザル/カニクイザル; バキュロウイルス発現, C末端親和性タグ付き) (rhesus / cynomolgus monkey); assay: cell-based or functional assay
T1 chain: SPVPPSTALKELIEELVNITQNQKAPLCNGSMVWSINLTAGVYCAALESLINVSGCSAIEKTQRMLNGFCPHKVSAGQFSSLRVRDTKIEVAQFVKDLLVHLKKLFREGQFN

[4] = target: ヒト変種IL-13 (Q130R) (バキュロウイルス発現, C末端親和性タグ付き) (human) (UniProt P35225); assay: cell-based or functional assay
[5] = target: 野生型ヒトIL-13 (バキュロウイルス発現, C末端親和性タグ付き) (human) (UniProt P35225); assay: cell-based or functional assay
[6] = target: 未変性の(天然に存在する)ヒトIL-13 (HDLM-2細胞から放出) (human) (UniProt P35225); assay: cell-based or functional assay; remark: listed apart in the source
[7] = target: 組換え細菌由来のヒトIL-13 (Peprotech) (human) (UniProt P35225); assay: cell-based or functional assay; remark: listed apart in the source
[8] = target: ヒト変種IL-13 (Q130R) (バキュロウイルス発現, C末端親和性タグ付き) (human) (UniProt P35225); assay: cell-based or functional assay; remark: listed apart in the source
[9] = target: 組換え細菌由来のヒトIL-13 (Peprotech) (human) (UniProt P35225); assay: SPR (BIAcore 2000), IgG4 amine-coupled to chip (~500 RU), IL-13 50-0.78 nM in solution
[10] = target: 組換えヒトエオタキシン-1 (R&D Systems) (human) (UniProt P51671); assay: cell-based or functional assay
Chain of UniProt P51671 (P51671 24-97 limits assumed): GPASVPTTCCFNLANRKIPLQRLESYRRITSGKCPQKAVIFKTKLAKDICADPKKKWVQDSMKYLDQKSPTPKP

[11] = target: T2, 組換え細菌由来のネズミIL-13 (Peprotech) (murine (mouse), UniProt P20109 21-131, limits assumed); assay: cell-based or functional assay
T2 sequence (looked up): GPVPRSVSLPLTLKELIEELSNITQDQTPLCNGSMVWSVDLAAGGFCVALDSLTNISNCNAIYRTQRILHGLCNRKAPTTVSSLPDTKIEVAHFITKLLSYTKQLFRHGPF

[12] = target: T2, 組換え細菌由来のネズミIL-13 (Peprotech); assay: SPR (BIAcore 2000), IgG4 amine-coupled to chip (~500 RU), IL-13 50-0.78 nM in solution

**Q.** “JES10-5A2 (ラットIgG1, Biosource) (antibody)” was tested. Which IC50, HDLM-2細胞増殖アッセイ [1] did it give?
**A.** The IC50, HDLM-2細胞増殖アッセイ was 10.7 nM.

**Q.** What about the IC50, NHLFエオタキシン放出アッセイ [2] of the same molecule?
**A.** The IC50, NHLFエオタキシン放出アッセイ was 0.623 nM.

**Q.** What about the IC50, TF-1細胞増殖アッセイ [2] of the same molecule?
**A.** Its IC50, TF-1細胞増殖アッセイ is 1.02 nM.

**Q.** With B-B13 (マウスIgG1, Euroclone) (antibody) as the molecule, how does the IC50, HDLM-2細胞増殖アッセイ [1] read?
**A.** The IC50, HDLM-2細胞増殖アッセイ was 16.7 nM.

**Q.** And the IC50, NHLFエオタキシン放出アッセイ [2]?
**A.** Its IC50, NHLFエオタキシン放出アッセイ is 0.219 nM.

**Q.** And the IC50, TF-1細胞増殖アッセイ [2]?
**A.** The IC50, TF-1細胞増殖アッセイ was 0.471 nM.

**Q.** Which IC50, HDLM-2細胞増殖アッセイ [1] does the source give for BAK502G9 IgG4 (antibody) here?
**A.** Its IC50, HDLM-2細胞増殖アッセイ is 4.6 nM.

B1: BAK502G9 IgG4 (antibody, V domains shown)
VH: QVQLVQSGAEVKKPGASVKVSCKASGYTFTNYGLSWVRQAPGQGLEWMGWISANNGDTNYGQEFQGRVTMTTDTSTSTAYMELRSLRSDDTAVYYCARDSSSSWARWFFDLWGRGTLVTVSS
VL: SYVLTQPPSVSVAPGKTARITCGGNIIGSKLVHWYQQKPGQAPVLVIYDDGDRPSGIPERFSGSNSGNTATLTISRVEAGDEADYYCQVWDTGSDPVVFGGGTKLTVL
**Q.** With B1 as the molecule, how does the “IC50, TF-1細胞増殖アッセイ” value [3] read?
**A.** Its value is 2 nM.

**Q.** What about the IC50, TF-1細胞増殖アッセイ [4] of the same molecule?
**A.** The IC50, TF-1細胞増殖アッセイ was 1.9 nM.

B2: BAK1167F2 IgG4 (antibody, V domains shown)
VH: B1 VH with T30E, N31Q, Y32T, L34V
VL: B1 VL
**Q.** How did the IC50, TF-1細胞増殖アッセイ [5] turn out when B2 was run?
**A.** The IC50, TF-1細胞増殖アッセイ was 1 nM.

**Q.** What about the IC50, HDLM-2細胞増殖アッセイ [6] of the same molecule?
**A.** The IC50, HDLM-2細胞増殖アッセイ was 1.1 nM.

**Q.** What about the IC50, HUVEC VCAM-1アップレギュレーション [7] of the same molecule?
**A.** The IC50, HUVEC VCAM-1アップレギュレーション was 0.055 nM.

**Q.** What about the IC50, NHLFエオタキシン放出アッセイ [7] of the same molecule?
**A.** Its IC50, NHLFエオタキシン放出アッセイ is 0.069 nM.

**Q.** And the IC50, TF-1細胞増殖アッセイ [8]?
**A.** Its IC50, TF-1細胞増殖アッセイ is 1.1 nM.

**Q.** And the “IC50, TF-1細胞増殖アッセイ” value [3]?
**A.** The value was 1.3 nM.

**Q.** What about the Kd [9] of the same molecule?
**A.** Its Kd is 0.136 nM.

B3: BAK1183H4 IgG4 (antibody, V domains shown)
VH: B1 VH with S52N, A53Y, N54D, N55G, D57N, N59Q
VL: B1 VL with T21P
**Q.** For B3, which “IC50, TF-1細胞増殖アッセイ” value [3] is on record?
**A.** The value was 1.6 nM.

B4: BAK1183H4 IgG4 (antibody, from another filing, V domains shown)
VH: B1 VH with S52N, A53Y, N54D, N55G, D57N, N59Q
VL: B1 VL
**Q.** With B4 as the molecule, how does the IC50, TF-1細胞増殖アッセイ [5] read?
**A.** The IC50, TF-1細胞増殖アッセイ was 0.9 nM.

**Q.** And the IC50, HDLM-2細胞増殖アッセイ [6]?
**A.** The IC50, HDLM-2細胞増殖アッセイ was 3.5 nM.

**Q.** What about the IC50, HUVEC VCAM-1アップレギュレーション [7] of the same molecule?
**A.** Its IC50, HUVEC VCAM-1アップレギュレーション is 0.058 nM.

**Q.** What about the IC50, NHLFエオタキシン放出アッセイ [7] of the same molecule?
**A.** The IC50, NHLFエオタキシン放出アッセイ was 0.118 nM.

**Q.** And the IC50, TF-1細胞増殖アッセイ [8]?
**A.** Its IC50, TF-1細胞増殖アッセイ is 1 nM.

**Q.** What about the Kd [9] of the same molecule?
**A.** Its Kd is 0.081 nM.

B5: CAT-213 (antibody, from another filing, V domains shown)
VH: QVQLVQSGGGVVQPGRSLRLSCAASGFTFSSYGMHWVRQAPGKGLEWVAVISYDGSIKHYADSVKGRFTISRDNSKNTLYLQMNSLRTDDTAVYYCAGDTDYGDIDPWGQGTMVTVSS
VL: DIQMTQSPSSVSASVGDRVTITCRASQDISSWLAWYQQKPGKAPKLLIYAASSLQSGVPSRFSGSGSGTDFTLTISSLQPEDFATYYCQQASSFPSITFGQGTRLEIKR
**Q.** B5 was tested. Which 好酸球形態変化 (%ブランク形態変化), 100 nM CAT-213 [10] did it give?
**A.** The 好酸球形態変化 (%ブランク形態変化), 100 nM CAT-213 was 101%.

B6: BAK209B11 scFv (scFv, V domains shown)
VH: VQLQESGGGGLVQPGGSLRLSCAASGFTFSSYGMSWVRQAPGKGLEWVSSISASGDSTFYADSVKGRFTISRDNNKNMVFLQVNSLRADDTAVYFCAKDWSQWLVGDAFDVWGRGTTVTVSS
VL: DIQLTQSPSTLSASVGDRVTITCRASQSVSLWVAWYQQRPGKAPKLLIYDGSTLQSGVPARFSGSGSGTEFTLTISSLQPDDFATYYCQQYKTFSTFGQGTKVEIK
**Q.** How did the “IC50, TF-1細胞増殖アッセイ” value [11] turn out when B6 was run?
**A.** Its value is 185 nM.

B7: BAK209B11 IgG4 (antibody, V domains shown)
VH: B6 VH
VL: DIQLTQSPSTLSASVGDRVTITCRASQSVSLWVAWYQQRPGKAPKLLIYDGSTLQSGVPARFSGSGSGTEFTLTISSLQPDDFATYYCQQYKTFSTFGQGTKVEIKR
**Q.** Which “IC50, B9細胞増殖アッセイ” value [11] does the source give for B7 here?
**A.** Its value is 0.776 nM.

**Q.** What about the Kd [12] of the same molecule?
**A.** Its Kd is 5.1 nM.
